Data as given in the DeepSol protein solubility set.

Assay: soluble on expression in E. coli; label from the status in PepcDB or PDB records

Sequence	soluble on expression in E. coli
MSLKFEKFICNLRQFTLTNGLKRSIAIISLVDKKGNISKGEVAPLPPWSKETLEEAIRQIDAKKSFILNIDWTIENYRDALMHLHLFPSVQFGIESALLSFLDPLKTYSIPVSALLMGSKKEILAQAKLRLQEGYQIAKLKVSQLSFSDAAKLIHQLKDTFRLRIDVNRAWKTEDSLQFFSEYSLDSFDYVEEPFQNPKELSLFSHPLAVDESFPSNFSLQDLETLCSLKSLIYKPTLQGGMTTCLPVYKWAKQRNIEFVLSSSFESELGLSHLISMAARLKLTSPIGIGTYHFLPQTEGPFLISNGQVNLKNLEGHHHHHH	not soluble
MSLKGDHAGKDRLIYKLQQTDSSYRYTNGTQGTAWTLIMENPLKGYGYGDDIYHAIYNKRVVDFPSWKFRQSIGPHNEGHHHHHH	soluble
MSLKGENMRVAGLKTDKQGVIFDMDGLLVNSEELYWQANIQAAREYKLGISDDAYLDLVGASVKAMDAFYEKYFPSDEVRQAFVKRTDDLVWEWTDQGKLKLKAGVKEALEYFNDLGLTVGIASNNYKSVVDHNLWVTGCRNSFDFIVTHDEVAEKKLRSKPFPDLYLAAQERSGLGKDQLLIFEDSSMGVEAAENAGIDCVMIPDIKPASAEDRARAQLICPDFFDFLKKISEGHHHHHH	soluble
MSLKGLTVGFLPKAVNNPYFTSADKGGEKALEELGSSYKEVGPSSATDTSGQVSYVNTLTQQQVDAMAVSAQDPGALCTALKQAMKNGIEVVTYDSDTKTGCRNAFVSQASAEDLGRTEVQLLAEQIGYKGEIAILSAAQTATNQNTWIGFMKDELKDPKYKNVKLVKVAYGNDDAQQSFQQTQGLLQEHPKLAGIISPTTVGIKAAAQYLSGSKYKGKVKLTGLGTPNDMRKYVKNGTVEGFELWDPAKLGELAARTAVALSSGQISGKEGETFKAGDMGSYTIGKDGEGHHHHHH	soluble
MSLKGTDRIKVLHMSDFHIDPRYATGSEGNCTSGLCCRRGNPVESLNSNYTVSVPAPRFGYFLCDTPWALGAAAVEAIPVLTGTDEDDAFNMTIFTGDMVSHDPYYELSRDYIEYTETALYDLWKQTLNPTSPLYAAIGNHDSYQQAFDAPSSLPGKLRKQSSWNYEHLAGLWESEGWIDGEVAQKVKTHYGAYSIQHATNLKIITINTDLWYRANIFAYINSTHPDNFGFLKFLAEELQEAEDCNSRAYIVGHVLSGYDGTNPLPGPTDIFYQIIDRYSHVIAGLFWGHTHEDQHMIYYANNGTKMSAETAQNVGWIGPSITPLTDLNSGFRLYEVDAETWDILDAHTWYSNVSTYSSLDGQLEVGPSYVYEYNTRQAYGGNISWPDNAPLNATWWHLVSQDMENDGGALVELYNAHQGKMSTLSPNCTSAECIEAKVCYLRSGSGTLALDNCKTGYGSVQEGHHHHHH	not soluble
MSLKIAVIGCGAMGSIYAAKLAAAGEQVLAVDRHRPSVERINRDGLRVTGPGCDQVVPLRASTGAVDETMDLVVLAVKAADVEAAARQALPMLGPDTAVLTIQNGLGSAETVAGVVGAQRVAVGIASGFGASRVAPGHVHHNAMRAMRFGPYSSLPHARVESIARTWAHAGFDAAAVTDIAAMQWEKLICNVAYSAPCALTGMTVGQVMDDAEMGPVSRAAATEAWSVARASGVAIAVADAVEHVRAFGAQMPDAKPSALLDHEARRVSEIDVINGAVPRQGARVGVDAPVNATLTAVVKSIERRWREGHHHHHH	not soluble
MSLKIKICGLSTKEAVDTAVESGVTHLGFILSPSKRQVAPEKILQITNDVPKTVKKVGVFVDEPIDFVKKAIQVAQLDLVQLHGNEDMNYINQLDISVIKAIRPDQEFKEYEDVILLFDSPQAGSGQAFDWDSLVTSGLKNKFFIAGGLNPENVAAAIQHFPNAYGVDVSSGVETDGIKNLTKIKNFVQNASLASSKQLFIEFLRITKKLNENKIIPYLMGSLAVEQIINFPTNPDDIDIQLKTSDFENFEQLTSLMEKLGYQLIDLHEHKFEKASIHVGFASVETLKNYAGVDYLTIQQERMENGEKYHLPNVEQSLKIYEAAKRDEWRGGKQKDSFIFDELIKEQKRNDNEGHHHHHH	soluble
MSLKIMGFYSQVILPRLLDWSLSDPTLATYRQELLTDVTGEVLEIGFGTGLNLAYYPSHIHKITTVDVNPGMNTIAQKRIDDSGIKVQQLLLSGENLPMADNTFDSVVSTWTLCSIANVEQALQEVYRVLKPGGKFFFLEHGLSNKPNVQVWQNRLTPIQKVLADGCHLNRNIQQLVEQSFDHVELKRFTPENFPDLMAHFYKGCATKKSIEGHHHHHH	not soluble
MSLKISLENVGCASQIGKRKENEDRFDFAQLTDEVLYFAVYDGHGGPAAADFCHTHMEKCIMDLLPKEKNLETLLTLAFLEIDKAFSSHARLSADATLLTSGTTATVALLRDGIELVVASVGDSRAILCRKGKPMKLTIDHTPERKDEKERIKKCGGFVAWNSLGQPHVNGRLAMTRSIGDLDLKTSGVIAEPETKRIKLHHADDSFLVLTTDGINFMVNSQEICDFVNQCHDPNEAAHAVTEQAIQYGTEDNSTAVVVPFGAWGKYKNSEINFSFSRSFASSGRWAEGHHHHHH	soluble
MSLKISSMFTPIRIGSMTVPNRFVVPPMGNNFANTDGTLSETSKAYYLERALGGFGLITIESSVVDKKAKGGPRKPCLYDDSTIDSFKNVIDACHDAGSKVSIQLQHAGSEGNEKVAGHPLKAASAIPASNGRNTPLAITTEEIYELIESYGDAALRAQKAGADAVEVHCAHGYLVSSFISQRTNKRVDEFGGCFENRMRLPRLIIENIRKKVGNSLAILCRINSTDDVPGGIDVHDSSVIAAYLEDCGIDGLHVSRSIHIHDEYMWAPTTLHAGFSAELVTEIKKAVSIPVITVGRYTEPQFAELMVRQGRCDLVAFGRQSLADPEMPNKAKNGKLDEMIPCIACLQGCVPNMFQGKPIACLANPILGHEAELKPAEISKEVLVVGGGVGGMLAAWVCAKRGHNVTLVEKSEVLGGQMRLAAYPPGKGDITNLVRSYISKCNQYGVKICTNTEATVELIKEKSPDVVIIATGATPLVLPIPGINDSGLIHAVDLLDGKKSCGKKVLVVGGGMVGCEVAAFLGEQEHEVTVIELREEVGADVISEHRKFLMNDFENYNIHTITGAKVSKFYDDGVDYLLTDGTEHDLKGFDSVVLAMGSRNYDPLSEVIKEVVKETYIVGDAVKARRALDATKEAFEVALNIEGHHHHHH	soluble
MSLKITEIETLRPEEFPNLLWVLVHTDEGITGLGETFYGACSAEAYIHEWAANRLIGEDPLQIDRHAKRLSGYLGFRSAGAEMRGNSALDIALWDIFGKATGQPIYQLLGGKCRDTIRTYNTCAGPHYVRTAKQQSVANWGLANSVSARYDDLNAFLHRADELALDLLDSGITAMKIWPFDPYAEASDGYYISKSDLKRALEPFEKIRRAVGDKMDVMVEFHSLWNLPPALQIAEALREYETFWHEDPIRMDSLSSLKRYAERSLAPVCASETLATRWGFRDLLETNAAGIVMLDISWCGGLSEARKIASMAEAWHLPVAPHDCTGPVVLTASTHLSLNAPNALVQESVRAFYDGWYRDLVTALPTVKDGHITVPDGPGLGLELMPDIRERLTIAVRNTSDCEGHHHHHH	soluble
MSLKITGNTILITGGGSGIGRALAEAFHQAGNRVIISGRRQAVLDEVTAANPGMASMVMDAGDAEGIRAFAEALVKAHPTLNAVINNAGIMRPEEIAAAPDYLDTAEETIATNLLAPIRLTAALLPHFLKQPAATVLTVSSGLAFVPMVLTPTYSATKSAIHAYSVALREQLKETSVEVIEIVPPYVQTTLMGEGQANDERAMPLEAFISEVMDILKNRPDEKEVVVERCKPLRFAAQNGNFDQVFAMINHMHEGHHHHHH	soluble
MSLKIVDATVLVTCPGRNFVTLRITTDEGVTGLGDATLNGREQAVVAYLREHVVPLLLGTDPHRIEDTWQSLYRGAYWRRGPVTMAAIAAVDVALWDIKAKVANLPLYQLLGGASRERVRTYGHANGRDIPELLDSVRARQAEGYQAIRVQTGVPGLRKVYGVHTGEAIAHNPTRLDQRAVPVVEDWDTPAYLRHLPTVLEAVRNEFGPELPLLHDAHHRLTPLQAAKLGKDVERYDLFWLEDCTPAENQEAFRLVRHHTTTPLAVGEVFNTVFDYQTLIAEQLIDYARSAVTHFGGVSALRKLFDFAAQHQVKSAIHGPEDISPVGMAAAIHLDLAVHNFGIQEYSGHTDATNEVFRHAYTFTDGHLHPGEAPGIGVDYDEELAAAHPYDPAYLPVNRLADGTVHDWEGHHHHHH	not soluble
MSLKIVRILEKDLPITSPGANAVVDFAGLTTSAVAIVTDAFRDGKPLVGYGFGSIGRWSVGGMLRERFIPRILAVEPASLQDETGNIDPFACWNAAMRNEKPGGHGDRATALGALDMALWDLRAKADGVPLYRLLADRYRDGQADEDVAVYAAGGYYQPGSNYRSLQDELKGYIDRGYNEVKIKIGGAPLAEDMRRIEAAIAVLGDGARLAVDANGRFDLETALAYGRAMSDYGLRWYEEPGDPLDFRLMAVLAEHYDGPLATGENLFSSQDARNLLRYGGMRAERDFVQFDCGLAYGLPDYLKVLDIMRRHGWSPRRLHPHGGHQMSLHLAAGLGLGGNESYPGVFQPLGGFADCSKVENGRVRLPDAPGVGLELKSELKTWLDEAFEEGHHHHHH	not soluble
MSLKKATLKDIAEYFGVSISTVSRALSGKPGVSSELREKILEKAREIGYTPNLMALGLKKGNTRTVGVLIPELSANFFADIVSSIEKSLFHLGYRLILCSTDDDPVKEREHLQLLLDQKVEGILSAPVNVKENKDIYNSIINHFKIPVVFFDRLVEGVDSDFVISDNREGMEILVNYLVKHGHKKIGLIHPLRGSFTGEERLKGFLLFKDSIEIREEWIRDGRSSEQGGYESFLRIMTSQERPTAIVIGNNLMTLGVLKAAKELNIKIPEDISLVSFDDAYWNEIFDPPITCVRQDPQQIGLIAATILLDRMKNRKKPSPRMQVVLKVKFVERSSVRTIKTLKDEGHHHHHH	soluble
MSLKKSWLGYAQGYLLYRDLNNHSMTAIRISPETLEQDGTVLLPDCHTEGQNILFTDGEYINQIAASRDDGFVVRIFATSTEPVLQQELQLKLARKCLHACGISLFDLEKDLHIISTGFDEESAILGAGREFALMKTANGKIYYTGKYQSLGIKQGGPSAGKWVELPITKSPKIVHFSVGHDGSHALLVAEDGSVFFTGSASKGEDGESTKSRRQSKPYKPKKIIKMEGKIVVYTACNNGSSSVISKDGELYMFGKDAIYSDSSSLVSDLKGHFVTQVAMGKAHTCVLMKNGEVWTFGVNNKGQCGRDTGAMNQGGKGFGVENMATAMDEDLEEELDEKDEKSMMCPPGMHKWKLEQCMVCTVCGDCTGYGASCVSSGRPDRVPGGICGCGSGESGCAVCGCCKACARELDGQEARQRGILDAVKEMIPLDLLLAVPVPGVNIEEHLQLRQEEKRQRVIRRHRLEDGRGPLVFAGPIFMNHREQALARLRSHPAQLKHKRDKHKDGSGDRGEKDASKITTYPPGSVRFDCELRAVQVSCGFHHSVVLMENGDVYTFGYGQHGQLGHGDVNSRGCPTLVQALPGPSTQVTAGSNHTAVLLMDGQVFTFGSFSKGQLGRPILDIPYWNAKPAPMPNIGSKYGRKATWIGASGDQTFLRIDEALINSHEGHHHHHH	not soluble
MSLKKTVSLCDITITQMLEEDSNQGHLIGDFSKVCALPTVSGKHQDLKYVNPETVAALLSGKFQGLIEKFYVIDCRYPYEYLGGHIQGALNLYSQEELFNFFLKKPIVPLDTQKRIIIVFHCEFSSERGPRMCRCLREEDRSLNQYPALYYPELYILKGGYRDFFPEYMELCEPQSYCPMHHQDHKTELLRCRSQSKVQEEGHHHHHH	soluble
MSLKKVNVTYALLYDKTKEKILMVKNKGKNGSYYTLPGGAVKLGETLEEAVIREVKEETGLHITVNGICYISEAFFEERGHHAIFFNFLGEIIGGETNITRPKEIEEITWMELHIASPHLRIPEHLVNMLKKKETVPYFFNGTIVHQSSEGHHHHHH	not soluble
